Data on one sequence can be found in PMC4769171.

Numbering of substitutions follows the chain as printed.

Conditions in all cases: EMSA: 10 mM Tris pH 7.5, 50 mM KCl, 2.5% glycerol, 0.05% Nonidet P-40, 1 ug poly(dI-dC), 5 fmol probe, 20 min RT; AFM buffer not in the material
For orientation: In EMSA bound probe runs differently from free probe, usually more slowly.

Data set [1] addresses His-SsrB (unphosphorylated);His-H-NS (Salmonella Typhimurium) (UniProt Q7CQM5+P0A1S2). Kind of data set: EMSA supershift.
For data set [2], the target named is T1, K179A His-SsrB K179A (UniProt Q7CQM5).
T1 sequence: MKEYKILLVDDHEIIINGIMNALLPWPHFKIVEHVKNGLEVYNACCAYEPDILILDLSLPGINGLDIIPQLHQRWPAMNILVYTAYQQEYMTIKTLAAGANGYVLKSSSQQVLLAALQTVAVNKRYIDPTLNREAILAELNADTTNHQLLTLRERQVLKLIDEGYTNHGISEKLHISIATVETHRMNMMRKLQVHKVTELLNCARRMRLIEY
The data set can be described thus: EMSA.

The target of data set [3] is T2, His-SsrB (unphosphorylated) (UniProt Q7CQM5).
T2 sequence: T1 sequence with A179K
Kind of data set: EMSA.

The target in data set [4] is T3, His-H-NS (Salmonella Typhimurium) (UniProt P0A1S2).
T3 sequence: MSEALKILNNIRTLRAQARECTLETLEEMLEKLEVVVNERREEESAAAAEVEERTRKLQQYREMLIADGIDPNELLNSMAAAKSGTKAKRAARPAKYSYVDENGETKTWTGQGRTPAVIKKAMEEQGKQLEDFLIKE
The data set can be described thus: EMSA.

Turning to “AATATTTTTCTCTTTCTGGATAATGGGCTATTTCAACCCACAGCAGTGCAACATCTGTCAGTACTTCTGGTGCCTTTATTTTATGGGGGCAGCTGTCAGATGTGCGATTAAAAAAAGTGGAGTTTCATCA (double strand) [csgD122]”, the binding entry is given as “binds” in data set [1], “no binding” in data set [2], “binds” in data set [3] and “binds” in data set [4].
